Assay results: US20250320281A1

Tests used:
[1] = molecular target: HIV-1 Env of isolate MGRM-AE-004 (subtype AE) (HIV-1); test: cell-based or functional assay
[2] = molecular target: HIV-1 Env of isolate MGRM-G-017 (HIV-1); test: cell-based or functional assay
[3] = molecular target: HIV-1 Env of isolate 6535.3 (subtype B pseudovirus) (HIV-1); test: cell-based or functional assay
[4] = molecular target: HIV-1 Env of isolate 92TH021 (pseudovirus) (HIV-1); test: cell-based or functional assay
[5] = molecular target: HIV-1 Env of isolate 93IN905 (subtype C pseudovirus) (HIV-1); test: cell-based or functional assay
[6] = molecular target: HIV-1 Env of isolate CAAN.A2 (subtype B pseudovirus) (HIV-1); test: cell-based or functional assay
[7] = molecular target: HIV-1 Env of isolate MGRM-AE-005 (HIV-1); test: cell-based or functional assay
[8] = molecular target: HIV-1 Env of isolate MGRM-AG-012 (HIV-1); test: cell-based or functional assay
[9] = molecular target: HIV-1 Env of isolate MGRM-Chronic-B-018 (subtype B pseudovirus) (HIV-1); test: cell-based or functional assay
[10] = molecular target: HIV-1 Env of isolate MGRM-D-019 (pseudovirus) (HIV-1); test: cell-based or functional assay
[11] = molecular target: HIV-1 Env of isolate MGRM-D-021 (pseudovirus) (HIV-1); test: cell-based or functional assay
[12] = molecular target: HIV-1 Env of isolate MGRM-F1-008 (pseudovirus) (HIV-1); test: cell-based or functional assay
[13] = molecular target: HIV-1 Env of isolate MGRM-F1-010 (pseudovirus) (HIV-1); test: cell-based or functional assay
[14] = molecular target: HIV-1 Env of isolate MGRM-F1-012 (pseudovirus) (HIV-1); test: cell-based or functional assay
[15] = molecular target: HIV-1 Env of isolate PVO.4 (subtype B pseudovirus) (HIV-1); test: cell-based or functional assay
[16] = molecular target: HIV-1 Env of pseudovirus isolate MGRM-G-028 (HIV-1); test: cell-based or functional assay
[17] = molecular target: JR-FL gp120 ΔV1/ΔV2 (HIV-1); test: ELISA, antigen-coated wells
[18] = molecular target: HIV-1 Env of isolate MG RM-D-018 (HIV-1); test: cell-based or functional assay
[19] = molecular target: HIV-1 92BR020 envelope glycoprotein (Env) on pseudovirus (HIV-1); test: cell-based or functional assay
[20] = molecular target: HIV-1 92TH021 envelope glycoprotein (Env) on pseudovirus (HIV-1); test: cell-based or functional assay
[21] = molecular target: HIV-1 APV-13 envelope glycoprotein (Env) on pseudovirus (HIV-1); test: cell-based or functional assay
[22] = molecular target: HIV-1 Env of isolate 92UG024 (clade D pseudovirus) (HIV-1); test: cell-based or functional assay
[23] = molecular target: HIV-1 Env of isolate 93IN905 (HIV-1); test: cell-based or functional assay
[24] = molecular target: HIV-1 Env of isolate MGRM-D-004 (clade D pseudovirus) (HIV-1); test: cell-based or functional assay
[25] = molecular target: HIV-1 Env of isolate MGRM-D-016 (clade D pseudovirus) (HIV-1); test: cell-based or functional assay
[26] = molecular target: HIV-1 Env of isolate MGRM-D-020 (clade D pseudovirus) (HIV-1); test: cell-based or functional assay
[27] = molecular target: HIV-1 Env of pseudovirus MGRM-AG-001 (clade CRF_AG) (HIV-1); test: cell-based or functional assay
[28] = molecular target: HIV-1 Env of pseudovirus MGRM-AG-013 (clade CRF_AG) (HIV-1); test: cell-based or functional assay
[29] = molecular target: HIV-1 Env of pseudovirus MGRM-Chronic-B-023 (HIV-1); test: cell-based or functional assay
[30] = molecular target: HIV-1 Env of pseudovirus MGRM-F1-014 (HIV-1); test: cell-based or functional assay
[31] = molecular target: HIV-1 Env of pseudovirus MGRM-F1-015 (HIV-1); test: cell-based or functional assay
[32] = molecular target: HIV-1 Env of pseudovirus MGRM-F1-016 (HIV-1); test: cell-based or functional assay
[33] = molecular target: HIV-1 Env of pseudovirus MGRM-G-013 (HIV-1, clade G isolate MGRM-G-013); test: cell-based or functional assay
[34] = molecular target: HIV-1 Env of pseudovirus MGRM-G-024 (HIV-1, clade G isolate MGRM-G-024); test: cell-based or functional assay
[35] = molecular target: HIV-1 IAVI-C22 envelope glycoprotein (Env) on pseudovirus (HIV-1); test: cell-based or functional assay
[36] = molecular target: HIV-1 envelope glycoprotein (Env) of isolate MGRM-A-002, clade A (HIV-1); test: cell-based or functional assay
[37] = molecular target: HIV-1 envelope glycoprotein (Env) of isolate MGRM-A-013, clade A (HIV-1); test: cell-based or functional assay

Chain of 4995_E20 (PGT-142) (antibody) (VH): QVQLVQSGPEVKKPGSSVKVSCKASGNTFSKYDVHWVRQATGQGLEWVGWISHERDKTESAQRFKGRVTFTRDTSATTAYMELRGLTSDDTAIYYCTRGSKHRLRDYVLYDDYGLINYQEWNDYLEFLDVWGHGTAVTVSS
Chain of 4995_E20 (PGT-142) (antibody) (VL): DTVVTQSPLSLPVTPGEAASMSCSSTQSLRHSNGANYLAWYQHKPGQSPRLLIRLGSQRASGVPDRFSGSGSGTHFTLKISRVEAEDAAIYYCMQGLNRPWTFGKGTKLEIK
Chain of 4980_N08 (PGT-143) (antibody) (VH): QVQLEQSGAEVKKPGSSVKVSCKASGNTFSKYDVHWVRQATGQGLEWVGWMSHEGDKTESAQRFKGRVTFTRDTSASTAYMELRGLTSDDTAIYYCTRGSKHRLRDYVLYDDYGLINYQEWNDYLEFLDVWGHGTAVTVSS
Chain of 4980_N08 (PGT-143) (antibody) (VL): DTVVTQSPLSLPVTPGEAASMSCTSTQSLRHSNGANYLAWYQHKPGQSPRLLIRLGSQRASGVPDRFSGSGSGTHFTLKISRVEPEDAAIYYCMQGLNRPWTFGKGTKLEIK
Chain of 4993_K13 (PGT-141) (antibody) (VH): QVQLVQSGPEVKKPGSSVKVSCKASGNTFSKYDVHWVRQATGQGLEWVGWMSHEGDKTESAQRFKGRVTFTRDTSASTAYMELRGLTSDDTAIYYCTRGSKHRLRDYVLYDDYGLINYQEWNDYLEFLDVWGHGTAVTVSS
Chain of 4970_K22 (PGT-144) (antibody) (VH): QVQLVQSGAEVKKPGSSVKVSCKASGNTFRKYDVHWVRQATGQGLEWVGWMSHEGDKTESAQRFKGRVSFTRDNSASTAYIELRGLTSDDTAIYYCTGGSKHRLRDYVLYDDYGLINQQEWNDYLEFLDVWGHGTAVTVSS
Chain of 4970_K22 (PGT-144) (antibody) (VL): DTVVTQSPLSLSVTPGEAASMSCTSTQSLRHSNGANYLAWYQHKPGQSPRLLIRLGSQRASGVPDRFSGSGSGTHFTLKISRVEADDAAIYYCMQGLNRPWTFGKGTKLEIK

Substance: 4970_K22 (PGT-144) (antibody)
- IC50 (µg/mL), pseudovirus neutralization [1]: 0.104 µg/mL
- IC50 (µg/mL), pseudovirus neutralization [2]: 9.97 µg/mL

Substance: 4980_N08 (PGT-143) (antibody)
- IC50 (µg/mL), pseudovirus neutralization [1]: 0.002 µg/mL
- IC50 (µg/mL), pseudovirus neutralization [2]: 0.107 µg/mL

Substance: 4993_K13 (PGT-141) (antibody)
- IC50 (µg/mL), pseudovirus neutralization [1]: 0.001 µg/mL
- IC50 (µg/mL), pseudovirus neutralization [2]: 0.164 µg/mL

Substance: 4995_E20 (PGT-142) (antibody)
- IC50 (µg/mL), pseudovirus neutralization [1]: 0.001 µg/mL
- IC50 (µg/mL), pseudovirus neutralization [2]: 0.125 µg/mL

Substance: 5145_B14 (PGT-127) (antibody)
- IC50 (µg/mL), pseudovirus neutralization [3]: 0.02 µg/mL
- Polyclonal Transfectant Neutralization Index [4]: 0.94
- Primary Neutralization Index (B cell culture supernatant) [4]: 1
- IC50 (µg/mL), pseudovirus neutralization [5]: 0.024 µg/mL
- IC50 (µg/mL), pseudovirus neutralization [6]: 0.371 µg/mL
- IC50 [7]: > 50 µg/mL
- IC50 [8]: > 50 µg/mL
- IC50 (µg/mL), pseudovirus neutralization [9]: 1.9 µg/mL
- IC50, pseudovirus neutralization [10]: > 50 µg/mL
- IC50, pseudovirus neutralization [11]: 0.056 µg/mL
- IC50, pseudovirus neutralization [12]: > 50 µg/mL
- IC50, pseudovirus neutralization [13]: > 50 µg/mL
- IC50, pseudovirus neutralization [14]: > 50 µg/mL
- IC50 (µg/mL), pseudovirus neutralization [15]: 0.164 µg/mL
- IC50 (µg/mL), pseudovirus neutralization [16]: 0.032 µg/mL
- EC50 [17]: 0.7 µg/mL

Substance: PGV04 (antibody)
- IC50 (µg/mL), pseudovirus neutralization [2]: 0.065 µg/mL

Substance: VRC01 (antibody)
- IC50 [18]: > 50 µg/mL
- IC50 (µg/mL), pseudovirus neutralization [1]: 0.187 µg/mL
- IC50 (µg/mL), pseudovirus neutralization [2]: 0.124 µg/mL

Substance: b12 (antibody)
- IC50, pseudovirus neutralization [19]: 27.5 µg/mL
- IC50, pseudovirus neutralization [20]: 9.99 µg/mL
- IC50, pseudovirus neutralization [21]: > 25 µg/mL
- IC50 (µg/ml), pseudovirus neutralization [22]: 45.6 µg/mL
- IC50 [23]: 21.4 µg/mL
- IC50 (µg/ml), pseudovirus neutralization [24]: > 50 µg/mL
- IC50 (µg/ml), pseudovirus neutralization [25]: 1.12 µg/mL
- IC50 (µg/ml), pseudovirus neutralization [26]: > 50 µg/mL
- IC50 [27]: 11.9 µg/mL
- IC50 [28]: > 50 µg/mL
- IC50 (µg/ml), pseudovirus neutralization [29]: > 50 µg/mL
- IC50 (µg/ml), pseudovirus neutralization [30]: > 50 µg/mL
- IC50 (µg/ml), pseudovirus neutralization [31]: > 50 µg/mL
- IC50 (µg/ml), pseudovirus neutralization [32]: > 50 µg/mL
- IC50 (µg/ml), pseudovirus neutralization [33]: > 50 µg/mL
- IC50 (µg/ml), pseudovirus neutralization [34]: 2.38 µg/mL
- IC50, pseudovirus neutralization [35]: 3.6 µg/mL
- IC50 (µg/ml), pseudovirus neutralization [36]: > 50 µg/mL
- IC50 (µg/ml), pseudovirus neutralization [37]: 7.04 µg/mL
